The source of these data is the supplement of paper PMC9112550, “Optimization of the antimicrobial peptide Bac7 by deep mutational scanning” (BMC Biology, 2022).
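Also: peptides expressed intracellularly from a pBAD plasmid library in pooled LB shake-flask culture, induced with 0.3% L-arabinose, DNA abundance read by NGS, three biological replicates, DESeq2 with apeglm shrinkage.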

The subject of this data set is Escherichia coli TOP10. In words: shrunken log2 fold change of peptide-encoding DNA abundance (4.5 h post-induction vs induction); higher = less antimicrobial activity (less host growth inhibition). Conditions: time post-induction: 4.5 h; library: site-saturation at positions 5, 18, 19, 20.
RRIRWRPPRLPRPRPRPHNKPRP: the “shrunken log2 fold change” value is -0.39.

On to RRIRNRPPRLPRPRPRPDPWPRP, for which the “shrunken log2 fold change” value stood at 0.106.

For the sequence RRIRFRPPRLPRPRPRPYTKPRP, the “shrunken log2 fold change” value is -0.573.

Turning to RRIRFRPPRLPRPRPRPNPIPRP, the “shrunken log2 fold change” value was -0.423.

As to RRIRSRPPRLPRPRPRPRNTPRP, the “shrunken log2 fold change” value is -0.411.

Consider RRIRERPPRLPRPRPRPYDVPRP, for which the “shrunken log2 fold change” value was -0.000921.

For RRIRRRPPRLPRPRPRPCIHPRP, the “shrunken log2 fold change” value was -0.402.

For the sequence RRIRYRPPRLPRPRPRPHPGPRP, the “shrunken log2 fold change” value was -0.727.

Turning to RRIRERPPRLPRPRPRPNKAPRP, the “shrunken log2 fold change” value was 0.12.

Consider RRIRARPPRLPRPRPRPVIKPRP, for which the “shrunken log2 fold change” value is -0.136.

On to RRIRHRPPRLPRPRPRPIKWPRP, for which the “shrunken log2 fold change” value was 0.126.

On to RRIRFRPPRLPRPRPRPTTHPRP, for which the “shrunken log2 fold change” value is -0.0585.

As for RRIRERPPRLPRPRPRPVTVPRP, the “shrunken log2 fold change” value was -0.0984.

In the case of RRIRMRPPRLPRPRPRPPQLPRP, the “shrunken log2 fold change” value worked out at 0.279.

Turning to RRIRNRPPRLPRPRPRPAILPRP, the “shrunken log2 fold change” value was -0.101.

As for RRIRYRPPRLPRPRPRPRPDPRP, the “shrunken log2 fold change” value was -0.0672.

Turning to RRIRLRPPRLPRPRPRPKELPRP, the “shrunken log2 fold change” value was found to be 0.0165.

For the sequence RRIRKRPPRLPRPRPRPLSDPRP, the “shrunken log2 fold change” value was 0.22.

Consider RRIRHRPPRLPRPRPRPRYRPRP, for which the “shrunken log2 fold change” value is -0.109.

RRIRDRPPRLPRPRPRPSERPRP: the “shrunken log2 fold change” value amounted to 0.0188.

With RRIRVRPPRLPRPRPRPIATPRP, the “shrunken log2 fold change” value came to 0.141.

Consider RRIRARPPRLPRPRPRPHTPPRP, for which the “shrunken log2 fold change” value was 0.152.

On to RRIRVRPPRLPRPRPRPPMYPRP, for which the “shrunken log2 fold change” value is -0.366.

RRIRERPPRLPRPRPRPTYSPRP: the “shrunken log2 fold change” value was -0.578.

As to RRIRRRPPRLPRPRPRPCGGPRP, the “shrunken log2 fold change” value was determined as 0.686.

On to RRIRPRPPRLPRPRPRPRTQPRP, for which the “shrunken log2 fold change” value was 0.223.

Regarding RRIRRRPPRLPRPRPRPKKWPRP, the “shrunken log2 fold change” value stood at 0.114.

RRIRNRPPRLPRPRPRPNKWPRP: the “shrunken log2 fold change” value was -0.155.

In the case of RRIRIRPPRLPRPRPRPSIAPRP, the “shrunken log2 fold change” value is -0.628.

On to RRIRKRPPRLPRPRPRPPWAPRP, for which the “shrunken log2 fold change” value was found to be 0.496.

As for RRIRPRPPRLPRPRPRPTGKPRP, the “shrunken log2 fold change” value turned out to be 0.102.

Turning to RRIRPRPPRLPRPRPRPMINPRP, the “shrunken log2 fold change” value was -0.179.

Regarding RRIRDRPPRLPRPRPRPHTDPRP, the “shrunken log2 fold change” value is -0.623.

For the sequence RRIRQRPPRLPRPRPRPRAYPRP, the “shrunken log2 fold change” value is -0.0505.

As for RRIRFRPPRLPRPRPRPGNHPRP, the “shrunken log2 fold change” value was -0.0246.

On to RRIRNRPPRLPRPRPRPNLMPRP, for which the “shrunken log2 fold change” value is -0.733.

With RRIRLRPPRLPRPRPRPKPNPRP, the “shrunken log2 fold change” value stood at 0.288.

For RRIRVRPPRLPRPRPRPPKSPRP, the “shrunken log2 fold change” value came to 0.1.

On to RRIRRRPPRLPRPRPRPMPQPRP, for which the “shrunken log2 fold change” value is 0.376.

In the case of RRIRGRPPRLPRPRPRPEIEPRP, the “shrunken log2 fold change” value amounted to 1.37.

For RRIRNRPPRLPRPRPRPVVGPRP, the “shrunken log2 fold change” value was 0.392.

Regarding RRIRLRPPRLPRPRPRPRNFPRP, the “shrunken log2 fold change” value is -0.112.

RRIRVRPPRLPRPRPRPGASPRP: the “shrunken log2 fold change” value worked out at 0.583.

Turning to RRIRGRPPRLPRPRPRPHTVPRP, the “shrunken log2 fold change” value is -0.311.

With RRIRGRPPRLPRPRPRPWQRPRP, the “shrunken log2 fold change” value was 0.0817.

On to RRIRVRPPRLPRPRPRPPLMPRP, for which the “shrunken log2 fold change” value came to 0.175.

For RRIRHRPPRLPRPRPRPGASPRP, the “shrunken log2 fold change” value is -0.196.

RRIRKRPPRLPRPRPRPLWPPRP: the “shrunken log2 fold change” value was found to be 0.46.

With RRIRMRPPRLPRPRPRPPNIPRP, the “shrunken log2 fold change” value was -0.113.

On to RRIRRRPPRLPRPRPRPKSKPRP, for which the “shrunken log2 fold change” value is 0.165.

In the case of RRIRTRPPRLPRPRPRPGRNPRP, the “shrunken log2 fold change” value is -0.0275.

Consider RRIRPRPPRLPRPRPRPESGPRP, for which the “shrunken log2 fold change” value amounted to 0.415.

Take RRIRLRPPRLPRPRPRPPNRPRP: the “shrunken log2 fold change” value came to 0.0237.

For the sequence RRIRCRPPRLPRPRPRPEVLPRP, the “shrunken log2 fold change” value stood at 0.149.

For RRIRMRPPRLPRPRPRPIVVPRP, the “shrunken log2 fold change” value came out at 0.0203.

Regarding RRIRRRPPRLPRPRPRPIPFPRP, the “shrunken log2 fold change” value was -0.175.

RRIRFRPPRLPRPRPRPSYNPRP: the “shrunken log2 fold change” value is -1.04.

As for RRIRQRPPRLPRPRPRPFEIPRP, the “shrunken log2 fold change” value is 0.0112.

Turning to RRIRKRPPRLPRPRPRPNEIPRP, the “shrunken log2 fold change” value was determined as 0.118.

As for RRIRNRPPRLPRPRPRPFSTPRP, the “shrunken log2 fold change” value was -0.226.

For the sequence RRIRIRPPRLPRPRPRPSFHPRP, the “shrunken log2 fold change” value is -1.13.

With RRIRDRPPRLPRPRPRPTNDPRP, the “shrunken log2 fold change” value is 0.0152.

Regarding RRIRCRPPRLPRPRPRPFQLPRP, the “shrunken log2 fold change” value is -1.02.

For the sequence RRIRWRPPRLPRPRPRPDEIPRP, the “shrunken log2 fold change” value came to 0.0148.

For RRIRFRPPRLPRPRPRPSMPPRP, the “shrunken log2 fold change” value was -0.331.

For RRIRARPPRLPRPRPRPMYEPRP, the “shrunken log2 fold change” value was -0.0125.

On to RRIRNRPPRLPRPRPRPESMPRP, for which the “shrunken log2 fold change” value is 0.669.

As for RRIRTRPPRLPRPRPRPLYTPRP, the “shrunken log2 fold change” value is -0.322.

On to RRIRERPPRLPRPRPRPVSSPRP, for which the “shrunken log2 fold change” value is -0.215.

Turning to RRIRRRPPRLPRPRPRPRNFPRP, the “shrunken log2 fold change” value was determined as 0.306.

On to RRIRMRPPRLPRPRPRPMQCPRP, for which the “shrunken log2 fold change” value was -0.0018.

Regarding RRIRNRPPRLPRPRPRPVTKPRP, the “shrunken log2 fold change” value came out at 0.0334.

On to RRIRQRPPRLPRPRPRPHSPPRP, for which the “shrunken log2 fold change” value is 0.000964.

On to RRIRYRPPRLPRPRPRPCGIPRP, for which the “shrunken log2 fold change” value was -0.00192.

Consider RRIRPRPPRLPRPRPRPDLGPRP, for which the “shrunken log2 fold change” value amounted to 0.215.

With RRIRCRPPRLPRPRPRPIAYPRP, the “shrunken log2 fold change” value is -0.113.

As for RRIRARPPRLPRPRPRPEKAPRP, the “shrunken log2 fold change” value was found to be 0.046.

Turning to RRIRMRPPRLPRPRPRPTRFPRP, the “shrunken log2 fold change” value came out at 0.261.

For RRIRVRPPRLPRPRPRPTDTPRP, the “shrunken log2 fold change” value is 0.817.

RRIRNRPPRLPRPRPRPDTNPRP: the “shrunken log2 fold change” value is -0.141.

As for RRIRIRPPRLPRPRPRPAWKPRP, the “shrunken log2 fold change” value was found to be 0.123.

For the sequence RRIRARPPRLPRPRPRPDFIPRP, the “shrunken log2 fold change” value is -0.0493.

With RRIRNRPPRLPRPRPRPRHMPRP, the “shrunken log2 fold change” value is -0.199.

For RRIRDRPPRLPRPRPRPDVQPRP, the “shrunken log2 fold change” value came to 0.0508.

On to RRIRMRPPRLPRPRPRPKLIPRP, for which the “shrunken log2 fold change” value was -0.0987.

As for RRIRERPPRLPRPRPRPYDTPRP, the “shrunken log2 fold change” value is -0.00822.

For RRIRKRPPRLPRPRPRPTFHPRP, the “shrunken log2 fold change” value stood at 0.136.

RRIRDRPPRLPRPRPRPVNNPRP: the “shrunken log2 fold change” value was 0.0566.

For the sequence RRIRHRPPRLPRPRPRPTLQPRP, the “shrunken log2 fold change” value is -0.0103.

Regarding RRIRVRPPRLPRPRPRPYRQPRP, the “shrunken log2 fold change” value was -0.479.

With RRIRERPPRLPRPRPRPAEIPRP, the “shrunken log2 fold change” value was -0.207.
